Data taken from US20050136043A1, “TGFbeta signaling inhibitors” (Ludwig Institute for Cancer Research, priority 2003, published 2005).

Target: T1, GST-TβR-I (Homo sapiens, UniProt P36897, T204D)
T1 construct: the complete cytoplasmic part (amino acid residues 148-503) of constitutively active TβR-I (T204D) FLAG-tagged at the C-terminus; made in house; host or cells: E. coli
T1 sequence (P36897 148-503 T204D): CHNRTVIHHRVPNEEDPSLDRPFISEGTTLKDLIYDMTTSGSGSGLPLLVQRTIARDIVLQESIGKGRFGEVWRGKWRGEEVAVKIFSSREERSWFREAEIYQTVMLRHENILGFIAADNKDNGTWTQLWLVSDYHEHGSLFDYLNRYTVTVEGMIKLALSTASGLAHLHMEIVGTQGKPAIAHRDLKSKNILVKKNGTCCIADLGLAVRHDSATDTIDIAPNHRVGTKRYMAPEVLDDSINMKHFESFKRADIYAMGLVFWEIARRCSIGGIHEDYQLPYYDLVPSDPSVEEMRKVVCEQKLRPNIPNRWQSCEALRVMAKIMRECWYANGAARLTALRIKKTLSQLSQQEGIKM
Assay: Phosphorylation of GST-Smad2 by GST-TβR-I, in vitro kinase assay
Type: biochemical
Conditions: for Inhibition of phosphorylation at the C-terminus of GST-Smad2: FIG. 4B; for Concentration at which effect of Sm2 peptides was observed / Concentration of maximal inhibition: in vitro kinase assay; for Concentration of maximal inhibition: data not shown
Protocol: In vitro kinase assay: GST-TβRI activity was assayed in vitro using the known TβR-I substrates GST-Smad3deltaMH1, GST-Smad2; GST-Smad1 was used as a control for specificity. The reaction mixture (20 μl) contained 20 mM HEPES (pH 7.4), 10 mM MgCl2, 2 mM MnCl2, 1 mM dithiothreitol (DTT), 5 μM ATP plus 0.5 μCi [γ^32P]ATP (Redivue, Amersham Biosciences), and inhibitors at different concentrations. The reaction was initiated by an addition of 0.02 μg purified GST-TβRI, followed by incubation at 22° C. for 20 min. Reaction was terminated by addition of 5 μl of 5× SDS-sample buffer. Samples were subjected to SDS-PAGE followed by analysis in a FujiX2000 phosphorimager. For all in vitro enzyme assays, the percent inhibition was calculated as 100×(1-Ai/A0), where Ai and A0 are levels of GST-Smad phosphorylation in the presence and absence of inhibitors, respectively. […] Phosphorylated GST-Smad3deltaMH1 and autophosphorylated GST-TβRI were analyzed by tryptic phosphopeptide mapping, as described previously.
Phosphorylation of GST-Smad2 by GST-TβR-I was performed in an in vitro kinase assay (FIG. 4B). The peptides were added as indicated.

Row | Inhibition of phosphorylation at the C-terminus of GST-Smad2 | Concentration at which effect of Sm2 peptides was observed | Concentration of maximal inhibition | Sequence
1 | inhibited | 10 µM | 200 µM | RQIKIWFQNRRMKWKKTQMGSPSVRCSAMA (listed as Homo sapiens) [antp-Sm2A]
2 | less pronounced | 10 µM | 200 µM | RQIKIWFQNRRMKWKKTQMGSPSVRCSSMS (listed as Homo sapiens) [antp-Sm2S, penetratin fused to the C-terminus of wild-type Smad2]
